The text below walks through data of paper PMC11784312 (2024).

Assay in all cases: ELISA
For experiment [1], the target named is hemagglutinin of A/chicken/Guangdong/SD008/2017 (H7N9) (influenza A virus …).
Experiment [2] has as its target hemagglutinin of A/duck/Guangxi/SDY129/2014 (H7N9) (influenza A virus …).
Experiment [3] has as its target hemagglutinin of A/chicken/Yunnan/SD193/2017 (H7N9) (influenza A virus …).
Experiment [4] concerns the target hemagglutinin of A/pigeon/Shanghai/S1069/2013 (H7N9) (influenza A virus …).

B1: 1H9 neutralizing antibody (antibody, V domains shown)
VH: VQLQESGPGLVKPSQSLSLTCTVTGYSITSDYTWNWIRQFPGNKLEWMGYITYSDTTSYNPSLKSRISITRDTSKNQFFLQLNSVTTEDTATYYCARSDGWYGFAYWGQGTLVTVSA
VL: DIQMNQSPSSLSASLGDTITITCHASQNINVWLSWYQQKPGNIPKLLIYKAFDLHTGVPSRFSGSGSGTGFTLTISSLQPEDIATYYCQQGQTYPFTFGGGTKLEIK
As to B1, the concentration giving a half-maximal response (EC50) stood at 0.0861 µg/mL in experiment [1], 0.0808 µg/mL in experiment [2], 0.195 µg/mL in experiment [3] and 0.0837 µg/mL in experiment [4].

B2: 2D7 neutralizing antibody (antibody, V domains shown)
VH: VQLQESGPGLVKPSQSLSLTCTVTGYSITSDYTWNWIRQFPGNKLEWMGYISYSGSTSYNPSLKSRMSITRDTSKNQFLLQLNSVTTADTATYYCTRDGPYWHIDVWGAGTTVTVSS
VL: DIQMNQSPSSLSASLGDTITITCHASQTINIWLSWYQLKPGNIPKLLIYKASNLHTGVPSRFSGSGSGTGFTLTISSLQPEDIASYYCQQGQSFPYTFGGGTKLEIK
As to B2, the EC50 was 0.0561 µg/mL in experiment [1], 0.0535 µg/mL in experiment [2], 0.0539 µg/mL in experiment [3] and 0.0857 µg/mL in experiment [4].
